Test results reported in the DeepSol protein solubility set.

Assay: soluble on expression in E. coli; label from the status in PepcDB or PDB records

Sequence	soluble on expression in E. coli
GHMFESAEVGHSIDKDTYEKAVIELREALLEAQFELKQQARFPVIILINGIEGAGKGETVKLLNEWMDPRLIEVQSFLRPSDEELERPPQWRFWRRLPPKGRTGIFFGNWYSQMLYARVEGHIKEAKLDQAIDAAERFERMLCDEGALLFKFWFHLSKKQLKERLKALEKDPQHSWKLSPLDWKQSEVYDRFVHYGERVLRRTSRDYAPWYVVEGADERYRALTVGRILLEGLQAALATKERAKRQPHAAPLVSSLDNRGLLDSLDLGQYLDKDAYKEQLAAEQARLAGLIRDKRFRQHSLVAVFEGNDAAGKGGAIRRVTDALDPRQYHIVPIAAPTEEERAQPYLWRFWRHIPARRQFTIFDRSWYGRVLVERIEGFCAPADWLRAYGEINDFEEQLSEYGIIVVKFWLAIDKQTQMERFKEREKTPYKRYKITEEDWRNRDKWDQYVDAVGDMVDRTSTEIAPWTLVEANDKRFARVKVLRTINDAIEAAYKKDKGA	soluble
MITLTKKQMEEMLAHARQALPNEACGLLGGRRDGDDRWVERVYPLNNLDQSPEHFSMDPREQLTAVKDMRKNGWVMLGNFHSHPATPARPSAEDKRLAFDPSLSYLIISLAEPQKPVCKSFLIKKDGVDEEEIILKEELEHHHHHH	soluble
HMGKIYAAMMIMEYYRQSKAKK	soluble
MLAHLEELKKNIEGDLYFDLTMRTLYATDASVYRELPLAVARPKHKQDVQKIIAFANKYKIGIIPRTAGTSLAGQVVGKGIIVDVSKYFTE	not soluble
MPYIIPTFEEIRAAILRDVKNLLPDADTGPDSDAFIRASSTASAVYGLYQHQLWMARQILPDTADTAYLESHAALRGITRKPATKATGTLTLTGTPGAAVPAGTEARHIATGATFRTTATVTLAENGTASAPCEASVAGAMPDYTAETVLLTAPPPGVQSTASLALTGGTDTETDAELLERLLFHFRNPPGGGNRYDYKRWALEVPGVTGAWVYPLRRGLGTVDVAVLSAGGLPTPELLAAAQARIDERRPVACKDARVLAPTPLAVDVRVRVRLAGTTLPVVTTQVREALAAHFGGYEPGGQVVRSRLEAIISGIPGVADRDLTAPSANVQAVVDASRVEWPRLGTVTVEAMLEHHHHHH	soluble
MSIFNKDALSSFFGLSGEEDDYYDNYEEYEERKAVNEPPRRAARPKPQRPVQQQESYSQPAYTQQSEPVVEKPSARYRSAEAHQERDTQQAAYTEKKVVSMRSSNQSATTNTRRAQESTANAKTHKITIIEPRVYSEAMSIAKHLFAEEAVLVNFTLVEEDQARRIVDFLTGTVYALDGDIQRVGNEIFLCTPANMEIDSATAQSLANKQFFDFLEHHHHHH	not soluble
MKTFPVSIVTPDGPVYEKEVEMVSVKAESGEMGILPGHIPTVAPLKISAVRLKNGGHTDYVAVSGGFIEVRPDKVTVLSSSAEEANHIDIHRANEAKRRAEQRMQDKQAHVDFKRAEMALQRAVNRLNVSDMK	not soluble
MAPSQAPSRDRAGQEDEDRWEARGDRKARKPLVEKKRRARINESLQELRLLLAGTEVQAKLENAEVLELTVRRVQGALRGRAREREQLQAEASERFAAGYIQCMHEVHTFVSTCQAIDATVSAELLNHLLESMPLREGSSFQDLLGDSLAGLPGGSGRSSWPPGGSPESPLSSPPGPGDDLCSDLEEIPEAELNRVPAEGPDLVSTSLGSLTAARRAQSVWRPW	not soluble
MSLHELDYYLIELDNPFCSDLPKIIAVHDKNLRYTSMGRGSSIEMRTITAYGEILERYCLWNQTPDLTSAFCADKPMLSPEEQVLPISESIDDREVEWKSYYSLSNHQRIFIHRPINSACYSNYFTQTSNGSAVHETEELAINSALEELIERHLFNIFWLFESNILEKSFSSDEIEHAIESGWRLDFYEIRDYKSCTICVMINRSDRRFSKGAMTVGLSFGSDSDACIRAYTECLQTLEAYLAFDKKVNNASLYYLSGKGTSQWQRKINTSLSSTPLSITKSVFEKYSPYMFTEKTNNDLVYCEVVMPHLIPLQYEHERDIRVNPDLLGHLTHRNMCYPIGEGHHHHHH	not soluble
MGSDKIHHHHHHMEQVDMGPAQAPPLFSGQLDARTRAASVDLHGCNVDYWVYEPVSVTAETRTMLVVHGFRGDHHGLLRVADQLPDMRLIMPDLPGFGSSDAFPDGGHSVRRYGQFISDFMAALGLGPDTVLLGHSFGSIVASHFAAANPGAVFPLILINPIAAPALEGPKGVMTKLAVIYYEASARLPRALGLYLLRSRLIVRVMSMAMAKTRDKQLLQFIHGQHNAYFSAFANRDSLLESFKASVGSNVSEVAPDLSLPVLLIAGEKDEIAMLPDQHKLQALLPDGTLEVIPGVGHLIHYETPQPAAGFIRRFLKDHPA	not soluble
MKRIGLTGNIGCGKSTVAQMFRELGAYVLDADKLIHSFYRKGHPVYEEVVKTFGKGILDEEGNIDRKKLADIVFKDEEKLRKLEEITHRALYKEIEKITKNLSEDTLFILEASLLVEKGTYKNYDKLIVVYAPYEVCKERAIKRGMSEEDFERRWKKQMPIEEKVKYADYVIDNSGSIEETYKQVKKVYEELTRDPLEHHHHHH	soluble
MEFIGDTRIVIINPLGAKKICRLTFEQIKVIYQEVKTHFENYRIIFTGLPQDLLTIPILEIETLPFDEFIYTVALTKYSDFVISVDTALVHIAAAYHKPTLAFYPNSRTPEYPSHLIWSPNHHKSIQIVSPTYTVKDIDTETLTNSVKRLEHHHHHH	not soluble
MGSDKIHHHHHHMAHQPVGTGSSIEVSVNPGHSRTSGVISHMSDTLRVAIVGDSDLQGAHVAISKSEFSPAADATDYLVLKDKPATISISRPSSQRVVGITTGSTTLIDFPEGTGSPFGINDMVTLRVIDQPYFEAAIGFGTVTKVWNAANIGGHYSTRITVNADTSGIKTDYVSTNWAELRSSFKVSSLGIGVGGKTGALYFQQVQITGE	not soluble
GPGSMNCVQQGKVNVIADNLIPDGKMTEMIIVMKSSVSARANGECLPCDAAQLCEDLTEDIIPYVDNHYRTDADRDNRAIAGLYMGSIQASRLCITRHDLFAYPGMFSGFLSSNWNGIGTDSDHIEALRCDPAAFQAAMKVLFRCIGDDNTYRAAFEADNALLAELGAACERRIYAGSHSWQVWRQAAADFPPMLFKDLSFFPRH	not soluble
MRRHAIILAAGKGTRMKSKKYKVLHEVAGKPMVEHVLESVKGSGVDQVVTIVGHGAESVKGHLGERSLYSFQEEQLGTAHAVQMAKSHLEDKEGTTIVVCGDTPLITKETLETLIAHHEDANAQATVLSASIQQPYGYGRIVRNASGRLERIVEEKDATQAEKDINEISSGIFAFNNKTLFEKLTQVKNDNAQGEYYLPDVLSLILNDGGIVEVYRTNDVEEIMGVNDRVMLSQAEKAMQRRTNHYHMLNGVTIIDPDSTYIGPDVTIGSDTVIEPGVRINGRTEIGEDVVIGQYSEINNSTIENGACIQQSVVNDASVGANTKVGPFAQLRPGAQLGADVKVGNFVEIKKADLKDGAKVSHLSYIGDAVIGERTNIGCGTITVNYDGENKFKTIVGKDSFVGCNVNLVAPVTIGDDVLVAAGSTITDDVPNDSLAVARARQTTKEGYRK	not soluble
MGKSLTEIAEELKGNDKKVQLIYAFNGTGKTRLSREFKNLIAPTSSEEPDGEPTRRKFLYYNAFTEDLFFWDNDLLANEAPRLKIQKNSFTDWLLRDNGLDGAVIKNFQYYTDDKLTPDFNDDFSEIAFYFARGNDEQIENIKISKGEESNFIWSIFYVLIRQVIAELNIPEDSEEGRSTDQFDDLEYIFIDDPVSSLDENHLIQQAVDLADLIKLSKPRLKFIITTHNVLFYNVLYNELKKLEKEKKSYLLLKNEDGSFDILEKQGDSNKSFSYHLHLKGVIEKAIENQQVERFHFMLLRNLYEKTANFLGYKQRSDILPEDSRRNYFQRIINFTSHSTLSNEAFAEPTPQEQETVKLLLQHLLDNYNFFQDDEQRDKP	not soluble
VRQLDSDGFAALMESIPHAISVHDRERNLVFSNPACAALIGYDTAEFADLEHEQLFHPDDAELWGTMLARVLGTESTSATAHLRIRHREGHWIWVRVAASTFTAGAERLVALVLQDESDTIWGNPTAARQPIR	not soluble
MGSDKIHHHHHHMRSLSEFIENSQDKREIQRALAVKMLLEGYTHVAIQSILDVSSGFISKWKKAFFTFGVEGLKLRYKGSQGFLNPQQRYCVIEWLKTKEKWNLSELEYEIASSYGVVFESKQSYYDLFDAAGISWKKTQAHNPKYDEELVASKKKEICELLETRRSEIESGKLVVFMVDECHLLWGDICGYVWGKTSERISVPVVNARDKQTYFGAIDYKTHEFITYAAKKGDSQNMINFLEYLQSQRPGANLLIIWDGASYHRSNAIQDYLDSLNRQLEQEQWLITCKRFAPNAPQQNPVEDIWLQAKKLIREFYFFCHSFSVVKALFELAVNGQIFDFPKLNEYGNFSQMI	not soluble
MGSDKIHHHHHHMRHENRVAWTEGMFLRVQHFQQSDRWTERLVRSVARSLTPYPWGILEIGLDRSALAIGQFALSGLRGMLPDGTPFDAPEDTDLPAALELDESVKNAVIYLALPARQPGKADMAQTGTSAVNSVRLVASPYEAPDANVETDFLAPIDVGRLNLKLLKTGDDLAGYELLGLARVVEVRSDKAVLLDPDFIPASLNCTASSRLHELMTELLGIVRHRAEAIAERIGDPTIRGTAEVGDYFLLQILNRADPLLKHALSNATRLHPIQFYEQCIQLAGELATFTMESKRATDFPAYRHDDLKATFGAVFEDLRTSLSSVLAQSAVAIELVERRHGVRVGTINDRSLLRDAGFVLAVRADMSAEDVRRTLPARIKVGPVERIAELVNVALPGIPVRPLPVLPRQLPYRAGTIYFELDTKTPLWKQLETSGAIALHLAGDFPGLELEMWALRE	not soluble
KRTMSISWPLAFSGAFQGSLTGMDNLRFICRIYNVDIDYVKAFTEEFSELGQYLYEPVKRYSSGMKARLAFALSLAVEFDCYLIDEVIAVGDSRFADKCKYELFEKRKDRSIILVSHSHSAMKQYCDNAMVLEKGHMYQFEDMDKAYEYYNSLP	not soluble
MEKIKNTCKIWEYIYTISRDRLYQKIPKEEFLRLSTSDKEYLEAIKNLNNPKISELARDMGYTKTAVTTMVQKLEKNGYLKKIKSKEDKREINVELTDKGRYIFELKEEVYEYTIKRIKEVLTPQELGAFKAILEKIAKEFDQELGKIYEKNENIDKSDGPPII	not soluble
MSLSQERFRVKYQIFEESKRAKEIAEAICVEQTIEFPIELTGNSIRENVVGKIEEIQNNHNSTVVTISYPVETVGNEPAQFFNVIMGNCSLFPNLKIIGLQLSPSIENIFPGPRYGISGLRKLLSIYNRPLLATAIKPMGLSTDQLAQMAYNLALGGVDIIKDDHGLADQPFSKFKDRVLKVTEAIHKANRETGFHTIYAPNITSNEQTMLKQAEFVKEAGSGALLVSPALSGFSSFITLRENTDLPILSHPAFLGGYLSIMDFDVLFGTIQRMIGADVVIFPNYGGRFTFSKEDCRKINHGLKKPFGSFKEIFPSPAGGMNIDSCGDIVSFYNKDVVLLIGGALHKAGADLTENVKAFKAQVEKIHVREGHHHHHH	soluble
MEVTDVRLRRVNTDGRMRAIASITLDHEFVVHDIRVIDGNNGLFVAMPSKRTPDGEFRDITHPINSSTRGKIQDAVLNEYHRLGDTEALEFEEAGAS	soluble
